Data on 16 molecules can be found in patent US20240325529A1, “MEDICAMENT FOR TREATMENT AND/OR PREVENTION OF CANCER” (TORAY INDUSTRIES, INC., priority 2021, published 2024).

B1: (ab): monoclonal antibody against CAPRIN-1 described in WO2013/125630, heavy-chain variable region SEQ ID NO: 114, light-chain variable region SEQ ID NO: 115 (antibody, listed as Mus musculus, V domains shown)
VH: GPELVKPGASVKMSCKASGYTFTSYVMHWVKQKPGQGLEWIGYINPYNDGTKYNEKFKGKATLTSDKSSSTAYMELSSLTSEDSAVYYCARRYYYGSSGGYFDVWAQDHVRT
VL: DVQITQSPSYLAASPGETITINCRASKSISKYLAWYQEKPGKTNKLLIYSGSTLQSGIPSRFSGSGSGTDFTLTISSLEPEDFAMYYCQQHNEYPYTFGGGTKLEIKR
B2: anti-CAPRIN-1 antibody (c) (antibody, V domains shown)
VH: AVTLDESGGGLQTPGGGLSLVCKASGFTFSSFDMGWVRQAPGKGLEFVAQINDAGSRTWYATAVKGRATISRDNGQTTVRLQLNNLRAEDTGTYYCTRGSGYVGAGAIDAWGHGTEVIVS
VL: AALTQPSSVSANPGETVKITCSGGSGYYGWYQQQKSPGSAPVTVIYQNDKRPSDIPSRFSGSGSGSTNTLTITGVQAEDEAVYFCGRYDSTDSGIFGAGTTLTVL
B3: anti-CAPRIN-1 antibody (a) (antibody, V domains shown)
VH: AVTLDESGGGLQMSRGGLSLVCKASGFDFSSYQMNWIRQAPGKGLEFVAAINKFGNSTGHGAAVKGRVTISRDNGQSTVRLQLNNLRAEDTAIYFCTKHAYGYCGSGTWCAAGEIDAWGHGTEVIVSS
VL: QAASTQPSSVSANPGETVEITCSGGGSYSYGWFQQKSPGSAPVTVIYYNNKRPSDIPSRFSGSKSGSTGTLTITGVQADDEAVYYCGSGDSTDTAVFGAGTTLTVLG
B4: anti-CAPRIN-1 antibody (o) (antibody, V domains shown)
VH: EVQLHQFGAELVKPGASVKISCKASGYTFTDYNMDWVKQSHGKSLEWIGDINPNYDSTSYNQKFKGKATLTVDKSSSTAYMELRSLTSEDTAVYYCARSRSYDYEGFAYWGQGTLVTVSA
VL: DIQMTQSPASLSASVGETVTITCRASGNIHNYLAWYQQKQGKSPQLLVYNAKTLADGVPSRFSGSGSGTQYSLKINSLQPEDFGSYYCQHFWSTLTFGAGTKLELKR
B5: anti-CAPRIN-1 antibody (d) (antibody, V domains shown)
VH: QSLEESGGDLVKPGASLTLTCTASGFSFSGSYYMSWVRQAPGKGLEWIAYIYIGDGVTAYANWAKGRFTISKASSTTVTLQMTSLTAADTATYFCARGNKLWGPGTLVTVSS
VL: DVVMTQTPASVEAAVGGTVTIKCQASQSISSYLAWYQQKPGQPPKRLIYDASNLDSGVPSRFKGSGSGTDFTITISDLECADAATYYCQCTAVSSATIYGNAFGGGTEVVVK
B6: anti-CAPRIN-1 antibody (i) (antibody, V domains shown)
VH: GAELVRSGASVKMSCKASGYSFTDYNMYWVKQTPGQGLEWIGYIYPGNGGTNYNQKFKGKATLTADTSSSTAYMQISSLTSEDSAVYFCARDYDDGGYAMDYWGQGTTVTVSS
VL: DIQMTQSPASLSASVGETVTITCRASGNIHNYLTWYQQKQGKSPQLLVYNAKTLADGVPSRFSGSGSGTQYSLKINRLQPEDFGSYYCQHFWNIPWTFGGGTKLNSR
B7: anti-CAPRIN-1 antibody (j) (antibody, V domains shown)
VH: DAELVKPGASVKISCKASGYTFTDHSIHWVQQKPEQGLEWIGYISPGNGNIKYNEKFKGKATLTADKSSSTAYMQLNSLTSEDSAVYFCKRSLGRGGPYYFDYWGQGTTVTVSS
VL: DIVLTQAAPSLPVTPGESVSISCRSSKSLLHSNGNTYLYWFLQRPGQSPQLLIYRMSNLASGVPDRFSGSGSGTAFTLRISRVEAEDVGVYYCMQHREYPVTFGSGPN
B8: anti-CAPRIN-1 antibody (af) (antibody, V domains shown)
VH: EVQLVESGGGLVQPGGSLRLSCAASGFSLSSHSLGWVRQAPGKGLEWIGDIRSGGSAYYANWAKGRFTISRDNSKNTLYLQMNSLRAEDTAVYYCTRTNGPSDLTNRLDLWGQGTLVTVSS
VL: QVLTQSPSSLSASVGDRVTINCQASQSLYNNENLAWFQQKPGKVPKRLIYGASTLASGVSSRFSGSGSGTEFTLTISSLQCEDFAIYYCLGEFSCGSADCFAFGGGTKVEIK
B9: anti-CAPRIN-1 antibody (ah) (antibody, V domains shown)
VH: B8 VH
VL: EQVLTQSPSSLSASVGDRVTINCQASQSLYNNENLAWFQQKPGKVPKRLIYGASTLASGVSSRFSGSGSGTEFTLTISNLQPEDFAIYYCLGEFSCGSADCFAFGGGTKVEIK
B10: anti-CAPRIN-1 antibody (ai) (antibody, V domains shown)
VH: B8 VH with Y94F
VL: B9 VL with Q2I, I87T
B11: anti-CAPRIN-1 antibody (ag) (antibody, V domains shown)
VH: B8 VH with Y94F
VL: B8 VL
B12: anti-CAPRIN-1 antibody (b) (antibody, V domains shown)
VH: B8 VH with V2Q, Q3S
VL: B8 VL
B13: anti-CAPRIN-1 antibody (ak) (antibody, V domains shown)
VH: B8 VH with Y94F
VL: B9 VL
B14: anti-CAPRIN-1 antibody (aj) (antibody, V domains shown)
VH: B8 VH
VL: B9 VL with Q2I, I87T
B15: anti-CAPRIN-1 antibody (e) (antibody, V domains shown)
VH: AVTLDESGGGLQTPGGALSLVCKASGFTFSGYDMLWVRQAPGKGLEWVAGIGSTGGGTDYGAAVKGRATISRDNGQSTVRLQLNNLRAEDTATYYCAKVAGGCNSGYCRDSPGSIDAWGHGTEVIVS
VL: AVTQQPASVSANPGETVKITCSGGGSRNYYGWYQQKSPGSVPVTVIYYDDQRPSNIPSRFSGALSGSTSTLTITGVQADDEAVYFCGSADSNTYEGSFGAGTTLTVL

Positions count from the first letter of the chain named.

The first experiment concerns the target T1, CAPRIN-1 on cell membrane surfaces of human cancer cells (Homo sapiens, UniProt Q14444).
T1 construct: endogenous in cells; host or cells: human cancer cell lines (BT-474, HT-29, QG56, H1650, NCI-N87, HEC-1-A, 22Rv1, Panc10.5, Hep3B, SKOV3, Caki-2, U-87MG, T24, OE33, OCI-AML5, Ramos, TGBC 14TKB, HT-1080, G-361)
T1 sequence (Q14444 1-709): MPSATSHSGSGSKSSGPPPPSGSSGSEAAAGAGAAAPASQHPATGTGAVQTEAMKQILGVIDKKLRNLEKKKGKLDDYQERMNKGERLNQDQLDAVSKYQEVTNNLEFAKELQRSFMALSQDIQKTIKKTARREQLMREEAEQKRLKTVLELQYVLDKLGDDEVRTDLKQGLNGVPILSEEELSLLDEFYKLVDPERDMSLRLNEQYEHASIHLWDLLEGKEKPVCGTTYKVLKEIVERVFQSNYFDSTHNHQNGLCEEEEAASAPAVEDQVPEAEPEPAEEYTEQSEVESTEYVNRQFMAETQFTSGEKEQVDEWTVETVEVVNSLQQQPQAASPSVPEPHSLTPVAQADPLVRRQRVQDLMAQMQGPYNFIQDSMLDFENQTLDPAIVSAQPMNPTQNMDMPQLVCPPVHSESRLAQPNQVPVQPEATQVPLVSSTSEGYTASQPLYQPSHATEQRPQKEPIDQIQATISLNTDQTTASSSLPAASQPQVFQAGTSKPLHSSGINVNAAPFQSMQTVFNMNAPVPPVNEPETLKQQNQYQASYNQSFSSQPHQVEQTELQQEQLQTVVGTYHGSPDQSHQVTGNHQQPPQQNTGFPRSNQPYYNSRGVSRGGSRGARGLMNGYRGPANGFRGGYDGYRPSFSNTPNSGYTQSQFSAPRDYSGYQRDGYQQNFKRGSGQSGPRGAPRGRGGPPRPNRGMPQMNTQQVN
Nature of the experiment: Flow cytometry reactivity with cell membrane surfaces of human cancer cells expressing CAPRIN-1. The format is binding. Conditions: human cancer cells: BT-474, HT-29, QG56, H1650, NCI-N87, HEC-1-A, 22Rv1, Panc10.5, Hep3B, SKOV3, Caki-2, U-87MG, T24, OE33, OCI-AML5, Ramos, TGBC 14TKB, HT-1080, G-361. An excerpt:
Reactivity of each monoclonal antibody with human cancer cells confirmed to express CAPRIN-1 protein on cell membrane surfaces was further confirmed by flow cytometry.
The reactivity of the anti-CAPRIN-1 antibody with cancer cells without permeation treatment of cell membranes was examined by flow cytometry to confirm that a portion of CAPRIN-1 was expressed on cell membrane surfaces of cancer cells as shown by Examples given below.
A general note: Flow cytometry measures light scatter and fluorescence of single cells or particles in a stream.
With B1, the “reactivity with cell membrane surfaces of cancer cells (fluorescence intensity versus negative control antibody)” value is “reacted strongly”.

The next experiment deals with Basal-like subtype of breast cancer (BLBC).
Assay: not given
Conditions: added to docetaxel after epirubicin and cyclophosphamide (EC treatment); cited from earlier work.
In the case of `N.N.O=C([O-])C1(C(=O)[O-])CCC1.[Pt+2]` [carboplatin], the “effectiveness of administering carboplatin” value is reported as “not effective”.

For the next experiment, the target named is T2, human CAPRIN-1 protein on cell membrane surfaces of human cancer cells (human, UniProt Q14444 2-709).
T2 construct: whole, on cells; Endogenous protein on cancer cells, stained without permeation of the cell membrane
T2 sequence (looked up): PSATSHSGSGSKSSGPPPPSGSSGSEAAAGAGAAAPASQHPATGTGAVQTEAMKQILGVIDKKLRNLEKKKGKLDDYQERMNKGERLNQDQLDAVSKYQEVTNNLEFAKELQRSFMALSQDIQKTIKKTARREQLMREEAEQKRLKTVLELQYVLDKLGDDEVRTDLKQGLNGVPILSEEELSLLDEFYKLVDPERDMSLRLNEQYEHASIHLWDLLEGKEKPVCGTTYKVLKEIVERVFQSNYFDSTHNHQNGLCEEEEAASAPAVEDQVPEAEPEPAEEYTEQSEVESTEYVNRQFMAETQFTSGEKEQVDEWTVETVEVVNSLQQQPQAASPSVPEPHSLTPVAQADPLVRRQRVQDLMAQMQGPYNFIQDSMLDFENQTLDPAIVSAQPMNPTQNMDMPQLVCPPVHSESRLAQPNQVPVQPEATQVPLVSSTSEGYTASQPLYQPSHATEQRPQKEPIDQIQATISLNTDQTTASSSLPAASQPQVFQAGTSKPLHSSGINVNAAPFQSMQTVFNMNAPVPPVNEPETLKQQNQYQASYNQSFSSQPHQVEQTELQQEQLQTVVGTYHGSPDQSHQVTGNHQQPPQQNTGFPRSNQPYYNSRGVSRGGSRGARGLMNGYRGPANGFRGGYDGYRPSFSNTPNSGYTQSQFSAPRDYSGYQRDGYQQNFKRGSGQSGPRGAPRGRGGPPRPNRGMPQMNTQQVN
Nature of the experiment: flow cytometry on cancer cells expressing CAPRIN-1.
Settings: not given
For B2, the binding result is “binds”. On the same count and under the same terms, as for B3, the entry is “binds”. Same read-out and setting: then B4, with “binds”; and B5, with “binds”; and B6, with “binds”. The same measure, in the same setting: then B7, with “binds”; and B8, with “binds”; and B9, with “binds”.

Consider B10, for which the binding result was “binds”. Regarding B11, the binding result is on record as “binds”. On the same count and under the same terms, as for B12, the entry is “binds”; as for B13, “binds”.

On to B14, for which the binding result is “binds”. On to B15, for which the binding result is on record as “binds”.
